Changes are numbered by the printed parent chain.

The text below walks through data of patent publication US20250002610A1 (Genmab, published 2025).

In assay [1] the target is T1, human DR4 with death domain deletion on ExpiCHO-S cells (human). The assay is described as follows: flow cytometry, ExpiCHO-S cells expressing human DR4, n = 3. The method, then:
Binding of BisG1-FAPα-FERL/DR4-FERR, BisG1-DR4-FEAL/b12-FEAR and IgG1-DR4-FERR to DR4 of various species commonly used for nonclinical toxicology studies was assessed by flow cytometry using ExpiCHO-S cells transiently expressing DR4 from different animal species. In contrast to other species, rodents only express one DR which has highest homology with human DR5. Therefore, ExpiCHO-S cells transiently expressing rat and mouse DR protein were used instead. All DR constructs lack the intracellular DD to avoid apoptosis of transfected cells upon DR(4) activation. IgG1-b12 was used as negative control.
In general terms: In flow cytometry, cells or beads pass a laser one at a time.

Assay [2] deals with T1, human DR4 with death domain deletion on …. Put plainly: flow cytometry, ExpiCHO-S cells expressing human DR4, average ± SEM.
The target in assay [3] is T2, His-tagged recombinant Human FAPα (Acro Biosystems, Cat #FAP-H5244-100ug) (human, UniProt Q12884 26-760).
T2 construct: Bought reagent; not shown: His tag
T2 sequence (looked up): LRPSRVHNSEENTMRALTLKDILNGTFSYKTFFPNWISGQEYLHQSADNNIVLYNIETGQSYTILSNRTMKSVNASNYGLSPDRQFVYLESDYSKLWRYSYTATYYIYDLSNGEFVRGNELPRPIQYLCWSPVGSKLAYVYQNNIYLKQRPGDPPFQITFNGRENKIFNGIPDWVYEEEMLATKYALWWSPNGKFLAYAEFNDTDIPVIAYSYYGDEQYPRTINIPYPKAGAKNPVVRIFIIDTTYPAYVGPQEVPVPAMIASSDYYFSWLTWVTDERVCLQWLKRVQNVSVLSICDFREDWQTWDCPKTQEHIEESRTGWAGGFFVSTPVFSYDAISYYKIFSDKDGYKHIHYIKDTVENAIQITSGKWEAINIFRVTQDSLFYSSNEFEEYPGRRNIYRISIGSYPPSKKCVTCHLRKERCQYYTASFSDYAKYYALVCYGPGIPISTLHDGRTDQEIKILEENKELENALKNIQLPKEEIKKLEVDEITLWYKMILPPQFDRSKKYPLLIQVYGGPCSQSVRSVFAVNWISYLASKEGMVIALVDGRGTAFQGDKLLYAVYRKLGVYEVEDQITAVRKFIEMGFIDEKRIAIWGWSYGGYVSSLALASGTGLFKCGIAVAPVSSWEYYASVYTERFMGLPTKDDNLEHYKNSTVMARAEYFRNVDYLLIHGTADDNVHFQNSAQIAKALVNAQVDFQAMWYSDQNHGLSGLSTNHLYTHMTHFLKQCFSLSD
Put plainly: BLI (Octet), antigen immobilized on AR2G sensors, average of three experiments. The method, then:
(§1) Experiments were carried out while shaking at 1,000 RPM at 30° C. Amine Reactive 2nd Generation (AR2G) biosensors (Sartorius, Cat #18-5092) were activated by reaction with 20 mM EDC (N-(3-Dimethylaminopropyl)-N′-ethylcarbodiimide hydrochloride) (Sigma-Aldrich, Cat #03449) and 10 mM s-NHS (N-hydroxysulfosuccinimide sodium salt) (Sigma-Aldrich, Cat #56485) for 300 s. The activated AR2G sensors were loaded with 2.5 μg/mL His-tagged recombinant Human FAPα (Acro Biosystems, Cat #FAP-H5244-100ug) in 10 mM Sodium Acetate pH 5.0 (Sartorius, Cat #18-1069) or 2.5 μg/mL His-tagged recombinant Cynomolgus FAPα (Acro Biosystems, Cat #FAP-C52H3-100ug) in 10 mM Sodium Acetate pH 5.0 for 600 s and quenched with 1 M ethanolamine pH 8.5 (Sartorius Cat #18-1071) for 300 s. After a baseline measurement in Sample Diluent (1000 s; Sartorius, Cat #18-1104), the association (100 s) and dissociation (4,000 s) of functionally monovalent antibody was determined using a concentration range of 0.78-800 nM with two-fold dilution steps in Sample Diluent. The molecular mass of the antibodies used for the calculations was calculated from the sequences.
(§2) The Y-axis was aligned to the last 10 s of the baseline; Interstep Correction alignment to dissociation and Savitzky-Golay filtering were applied. Data traces with a response <0.05 nm were excluded from analysis. […] The data were fitted with the 1:1 Global Full fit model using a window of interest for the association of 100 s and dissociation time set 4,000 s.
For orientation: Biolayer interferometry detects binding as a change in optical thickness at a sensor tip.

For assay [4], the target named is T3, His-tagged recombinant Cynomolgus FAPα (Acro Biosystems, Cat #FAP-C52H3-100ug) (cynomolgus monkey, UniProt A0A2K5VGF4 26-760).
T3 construct: Bought reagent; also called recombinant cynomolgus monkey FAPα; not shown: His tag of the vendor's construct (Acro Biosystems FAP-C52H3)
T3 sequence: T2 sequence (looked up) with S4P, V236F, E392D
The assay is described as above. As to the method: as §1, §2

T1 sequence (chain, as listed by the source limits assumed, stated change not applied): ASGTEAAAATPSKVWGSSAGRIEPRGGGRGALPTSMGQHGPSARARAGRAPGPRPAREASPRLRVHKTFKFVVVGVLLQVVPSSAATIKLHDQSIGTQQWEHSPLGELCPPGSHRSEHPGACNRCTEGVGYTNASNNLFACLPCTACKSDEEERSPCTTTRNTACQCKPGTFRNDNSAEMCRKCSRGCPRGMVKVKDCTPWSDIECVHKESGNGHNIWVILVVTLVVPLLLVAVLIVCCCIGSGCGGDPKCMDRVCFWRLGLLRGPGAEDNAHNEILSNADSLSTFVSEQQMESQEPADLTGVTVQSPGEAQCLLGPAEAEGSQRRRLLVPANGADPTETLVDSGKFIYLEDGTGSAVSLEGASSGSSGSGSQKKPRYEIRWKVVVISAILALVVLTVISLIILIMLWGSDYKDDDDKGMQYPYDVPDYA

B1: IgG1-DR4-FERR (antibody, V domains shown)
VH: QVQLQESGPGLVKPSGTLSLTCAVSGGSISSYSWWSWIRQPPGKGLEWIGELYHSGSTNYNPSLKSRVTISVDKSKNQFSLKLRSVTAADTAVYYCVRGVATIDYWGQGTLVTVSS
VL: QSALTQPPSASGSPGQSVTISCTGTSSDVGGYNFVSWYQQDPGKAPKLLIYEVTKRPSGVPDRFSGSKSGNTASLTVSGLQAEDEADYYCSSYAGSNNVMFGGGTKLTVLG
notes: Bivalent monoclonal IgG1 lambda
As to B1, the results for the EC50 in assay [1] and in assay [2] were 0.04 µg/mL and 0.14 µg/mL, respectively.

B2: BisG1-FAPα-FERL/DR4-FERR (bispecific antibody, human IgG1, kappa, lambda)
heavy 1: EVQLLESGGGLVQPGGSPRLSCEASGFTFSSYALSWVRQAPGKGLEWVSAISGSGGGRYYADSVKGRFTISRDNSKNTLFLQMNSLRAEDTAVYYCAKEGYSSSGTYWDHWGQGTLVTVSSASTKGPSVFPLAPSSKSTSGGTAALGCLVKDYFPEPVTVSWNSGALTSGVHTFPAVLQSSGLYSLSSVVTVPSSSLGTQTYICNVNHKPSNTKVDKRVEPKSCDKTHTCPPCPAPEFERGPSVFLFPPKPKDTLMISRTPEVTCVVVDVSHEDPEVKFNWYVDGVEVHNAKTKPREEQYNSTYRVVSVLTVLHQDWLNGKEYKCKVSNKALPAPIEKTISKAKGQPREPQVYTLPPSREEMTKNQVSLTCLVKGFYPSDIAVEWESNGQPENNYKTTPPVLDSDGSFLLYSKLTVDKSRWQQGNVFSCSVMHEALHNHYTQKSLSLSPG
light 1: AIQMTQSPSSVSASVGDRVTITCRASQGVSSWLAWYQQKPGRAPKLLIYVASTLQSGVPSRFSGSGSGTDFTLTINSLQPEDFATYYCQQANSFPPTFGQGTRLEMKRTVAAPSVFIFPPSDEQLKSGTASVVCLLNNFYPREAKVQWKVDNALQSGNSQESVTEQDSKDSTYSLSSTLTLSKADYEKHKVYACEVTHQGLSSPVTKSFNRGEC
heavy 2: QVQLQESGPGLVKPSGTLSLTCAVSGGSISSYSWWSWIRQPPGKGLEWIGELYHSGSTNYNPSLKSRVTISVDKSKNQFSLKLRSVTAADTAVYYCVRGVATIDYWGQGTLVTVSSASTKGPSVFPLAPSSKSTSGGTAALGCLVKDYFPEPVTVSWNSGALTSGVHTFPAVLQSSGLYSLSSVVTVPSSSLGTQTYICNVNHKPSNTKVDKRVEPKSCDKTHTCPPCPAPEFERGPSVFLFPPKPKDTLMISRTPEVTCVVVDVSHEDPEVKFNWYVDGVEVHNAKTKPREEQYNSTYRVVSVLTVLHQDWLNGKEYKCKVSNKALPAPIEKTISKAKGQPREPQVYTLPPSREEMTKNQVSLTCLVKGFYPSDIAVEWESNGQPENNYKTTPPVLDSDGSFFLYSRLTVDKSRWQQGNVFSCSVMHEALHNHYTQKSLSLSPG
light 2: QSALTQPPSASGSPGQSVTISCTGTSSDVGGYNFVSWYQQDPGKAPKLLIYEVTKRPSGVPDRFSGSKSGNTASLTVSGLQAEDEADYYCSSYAGSNNVMFGGGTKLTVLGQPKAAPSVTLFPPSSEELQANKATLVCLISDFYPGAVTVAWKADSSPVKAGVETTTPSKQSNNKYAASSYLSLTPEQWKSHRSYSCQVTHEGSTVEKTVAPTECS
notes: Human IgG1 bispecific made by controlled Fab-arm exchange of IgG1-FAPα-FERL and IgG1-DR4-FERR; monovalent for FAPα and for DR4; also called GEN1057
In the case of B2, the EC50 in assay [1] was 0.11 µg/mL; in assay [2], 0.5 µg/mL. Moreover, the Kd in assay [3] came out at 0.026 nM; in assay [4] it was 0.037 nM. Further, the koff in assay [3] was 3e-05 s⁻¹; in assay [4] it was 2.8e-05 s⁻¹. Moreover, the kon came to 1.1e+06 M⁻¹ s⁻¹ in assay [3] and 770000 M⁻¹ s⁻¹ in assay [4].

B3: BisG1-FAPα-FERL/b12-FERR (bispecific antibody, human IgG1, kappa)
heavy 1: B2 heavy 1
light 1: B2 light 1
heavy 2: QVQLVQSGAEVKKPGASVKVSCQASGYRFSNFVIHWVRQAPGQRFEWMGWINPYNGNKEFSAKFQDRVTFTADTSANTAYMELRSLRSADTAVYYCARVGPYSWDDSPQDNYYMDVWGKGTTVIVSSASTKGPSVFPLAPSSKSTSGGTAALGCLVKDYFPEPVTVSWNSGALTSGVHTFPAVLQSSGLYSLSSVVTVPSSSLGTQTYICNVNHKPSNTKVDKRVEPKSCDKTHTCPPCPAPEFERGPSVFLFPPKPKDTLMISRTPEVTCVVVDVSHEDPEVKFNWYVDGVEVHNAKTKPREEQYNSTYRVVSVLTVLHQDWLNGKEYKCKVSNKALPAPIEKTISKAKGQPREPQVYTLPPSREEMTKNQVSLTCLVKGFYPSDIAVEWESNGQPENNYKTTPPVLDSDGSFFLYSRLTVDKSRWQQGNVFSCSVMHEALHNHYTQKSLSLSPG
light 2: EIVLTQSPGTLSLSPGERATFSCRSSHSIRSRRVAWYQHKPGQAPRLVIHGVSNRASGISDRFSGSGSGTDFTLTITRVEPEDFALYYCQVYGASSYTFGQGTKLERKRTVAAPSVFIFPPSDEQLKSGTASVVCLLNNFYPREAKVQWKVDNALQSGNSQESVTEQDSKDSTYSLSSTLTLSKADYEKHKVYACEVTHQGLSSPVTKSFNRGEC
For the molecule B3, in assay [3], the Kd was determined as 0.017 nM, the koff was 2.1e-05 s⁻¹ and the kon is 1.2e+06 M⁻¹ s⁻¹. Moreover, in assay [4], the Kd came to 0.034 nM, the koff came out at 2.5e-05 s⁻¹ and the kon worked out at 750000 M⁻¹ s⁻¹.

Usually EC50 stands for the midpoint of the concentration-response curve. For orientation: Kd means a measure of binding affinity in units of concentration. Usually koff stands for a measure of how fast the partners let go of each other. Usually kon stands for a measure of how fast the partners come together.
